The record followed here is patent US20040126819A1.

The target of this test is human wild type c-RET expressed in 3T3 fibroblasts (human) (UniProt P07949). Put plainly: cell-based or functional assay.

A value given as a limit tells only on which side of the number the result lay.

Sequence of human wild type c-RET expressed in 3T3 fibroblasts (human) (P07949 29-1114): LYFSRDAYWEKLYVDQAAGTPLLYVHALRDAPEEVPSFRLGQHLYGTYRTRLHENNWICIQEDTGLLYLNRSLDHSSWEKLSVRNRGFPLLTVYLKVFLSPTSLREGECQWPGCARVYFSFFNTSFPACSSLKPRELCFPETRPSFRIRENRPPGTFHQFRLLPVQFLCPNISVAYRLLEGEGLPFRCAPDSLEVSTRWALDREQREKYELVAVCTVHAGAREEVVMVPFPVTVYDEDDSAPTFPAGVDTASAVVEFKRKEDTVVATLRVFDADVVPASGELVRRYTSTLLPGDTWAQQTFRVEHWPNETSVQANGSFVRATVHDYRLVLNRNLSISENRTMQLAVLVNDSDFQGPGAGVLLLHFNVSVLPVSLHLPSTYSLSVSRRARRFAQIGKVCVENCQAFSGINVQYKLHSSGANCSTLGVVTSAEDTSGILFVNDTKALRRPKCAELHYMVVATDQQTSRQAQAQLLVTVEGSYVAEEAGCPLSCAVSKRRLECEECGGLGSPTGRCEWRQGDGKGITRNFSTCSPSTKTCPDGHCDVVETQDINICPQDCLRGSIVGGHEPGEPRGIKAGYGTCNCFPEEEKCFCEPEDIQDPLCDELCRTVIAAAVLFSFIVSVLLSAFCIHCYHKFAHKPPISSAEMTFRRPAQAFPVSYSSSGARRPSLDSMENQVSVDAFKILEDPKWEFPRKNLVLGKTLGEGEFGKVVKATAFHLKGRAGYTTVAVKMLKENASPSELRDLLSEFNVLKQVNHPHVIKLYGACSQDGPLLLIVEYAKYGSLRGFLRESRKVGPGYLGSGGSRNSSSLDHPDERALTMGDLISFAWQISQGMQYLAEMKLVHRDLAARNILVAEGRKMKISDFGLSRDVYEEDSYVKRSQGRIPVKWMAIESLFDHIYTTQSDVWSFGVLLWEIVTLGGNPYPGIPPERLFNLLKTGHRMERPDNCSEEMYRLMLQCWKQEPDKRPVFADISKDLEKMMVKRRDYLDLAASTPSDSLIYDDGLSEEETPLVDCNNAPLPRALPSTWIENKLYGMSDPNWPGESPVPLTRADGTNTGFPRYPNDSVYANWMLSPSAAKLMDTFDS
Sequence of ^125I-GDNF (human GDNF from PeproTech EC Ltd. or rat GDNF from C. F. Ibanez) (ligand) (P39905 78-211): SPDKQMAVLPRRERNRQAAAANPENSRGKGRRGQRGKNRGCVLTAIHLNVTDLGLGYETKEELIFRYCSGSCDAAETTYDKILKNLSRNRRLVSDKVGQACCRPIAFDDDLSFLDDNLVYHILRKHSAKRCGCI

“^125I-GDNF (human GDNF from PeproTech EC Ltd. or rat GDNF from C. F. Ibanez) (ligand)” returned a tyrosine phosphorylation of c-RET in c-ret-3T3 cells, time course at 50 ng/ml GDNF of 5 min and a tyrosine phosphorylation of the 160 kD c-RET isoform in c-ret-3T3 cells, dose-response, 5 min of over 25 ng/mL.
